The record followed here is the Immune Epitope Database (IEDB).

In one assay the target is HLA-B*15:09. Briefly: IEDB peptide-MHC binding, purified MHC/competitive/fluorescence; filed as Kd, often an IC50 or EC50 that approximates it; ≥ and ≤ were set here for values at or beyond the usual limits of such assays. Particulars: source organism: Bacillus anthracis str. A0488.
The target in the next assay is HLA-B*39:01. Described as above. Conditions: source organism: Bacillus anthracis str. A0488.
The target of the next assay is HLA-A*26:02. The assay is described as above. Conditions: source organism: Bacillus anthracis str. A0488.
The target in a further assay is HLA-A*02:01. Briefly: IEDB peptide-MHC binding, purified MHC/direct/fluorescence; filed as Kd, often an IC50 or EC50 that approximates it; ≥ and ≤ were set here for values at or beyond the usual limits of such assays. Particulars: source organism: Bacillus anthracis.
In the next assay the target is HLA-A*01:01. The assay is described as above. Particulars: source organism: Bacillus anthracis.
Another assay addresses HLA-A*11:01. The assay is described as above. Conditions: source organism: Bacillus anthracis.
Another assay deals with HLA-A*03:01. Described as above. Particulars: source organism: Bacillus anthracis.
The target in another assay is HLA-B*15:02. The assay is described as above. Particulars: source organism: Bacillus cereus 03BB108.
The target of the next assay is HLA-B*07:02. The assay is described as above. Particulars: source organism: Bacillus anthracis.
The target in another assay is HLA-B*46:01. The assay is described as above. Conditions: source organism: Bacillus anthracis.
A further assay deals with HLA-A*69:01. The assay is described as above. Particulars: source organism: Bacillus anthracis.
The target of the next assay is HLA-B*27:05. The assay is described as above. Particulars: source organism: Bacillus anthracis.
Another assay deals with HLA-A*31:01. The description is as above. Conditions: source organism: Bacillus anthracis.
A further assay deals with HLA-B*58:01. Described as above. Particulars: source organism: Bacillus anthracis.
Another assay addresses HLA-B*15:17. The description is as above. Conditions: source organism: Bacillus anthracis.
The target of another assay is HLA-B*48:01. The assay is described as above. Conditions: source organism: Bacillus anthracis.
The target of a further assay is HLA-A*68:02. The description is as above. Particulars: source organism: Bacillus anthracis.
In another assay the target is HLA-B*15:01. Described as above. Particulars: source organism: Bacillus anthracis.
Another assay has as its target HLA-A*26:01. The assay is described as above. Conditions: source organism: Bacillus cereus 03BB108.
The target of the next assay is HLA-B*35:01. Described as above. Particulars: source organism: Bacillus cereus 03BB108.
The next assay deals with HLA-B*08:03. The assay is described as above. Conditions: source organism: Bacillus cereus 03BB108.
The target of a further assay is HLA-B*57:01. The description is as above. Particulars: source organism: Bacillus anthracis.

On to SQMPPQKIM, for which the dissociation constant Kd is 0.283 µM in the assay with HLA-B*15:09; 3 µM in the assay with HLA-B*39:01; at least 20 µM with HLA-A*26:02; at least 20 µM in the assay with HLA-A*02:01; at least 20 µM with HLA-A*01:01; at least 20 µM with HLA-A*11:01. For the same sequence, the equilibrium dissociation constant (Kd) is at least 20 µM in the assay with HLA-A*03:01; 0.022 µM with HLA-B*15:02; at least 20 µM with HLA-B*07:02; at least 20 µM with HLA-B*46:01; at least 20 µM with HLA-A*69:01; at least 20 µM with HLA-B*27:05. The Kd with HLA-A*31:01 was at least 20 µM; in the assay with HLA-B*58:01 it was at least 20 µM; with HLA-B*15:17, at least 20 µM; with HLA-B*48:01, 3.67 µM; with HLA-A*68:02, at least 20 µM; with HLA-B*15:01, 0.125 µM. The Kd in the assay with HLA-A*26:01 was at least 20 µM; with HLA-B*35:01, 0.661 µM; with HLA-B*08:03, at least 20 µM; with HLA-B*57:01, at least 20 µM.

For orientation: Kd means the free concentration of one partner at which half of the binding sites on the other are occupied at equilibrium, for simple one-to-one binding.
